Read-outs that look alike come from different tables or passages of the source.
Legend:
[1] = tested on: M.MpeI N374K (Mycoplasma penetrans); conditions: CpGs modified with SAM or CxSAM, bisulfite sequencing
[2] = tested on: M.MpeI WT K374N (reversion to wild type) (Mycoplasma penetrans); conditions: CpGs modified with SAM; no transfer with CxSAM
[3] = tested on: M.MpeI N374K (Mycoplasma penetrans); conditions: CpGs converted to 5cxmC with CxSAM; ~60% 5mC with SAM; bisulfite sequencing
[4] = tested on: M.MpeI N374K (Mycoplasma penetrans); conditions: 5mC on one strand of CpG; CxSAM preferred over SAM 1.3-fold; HpaII protection assay
[5] = molecular target: T1, Dcm N436K (Escherichia coli) (UniProt P0AED9); assay: cell_activity; conditions: CCWGG sites carboxymethylated; also makes 5mC
T1 sequence: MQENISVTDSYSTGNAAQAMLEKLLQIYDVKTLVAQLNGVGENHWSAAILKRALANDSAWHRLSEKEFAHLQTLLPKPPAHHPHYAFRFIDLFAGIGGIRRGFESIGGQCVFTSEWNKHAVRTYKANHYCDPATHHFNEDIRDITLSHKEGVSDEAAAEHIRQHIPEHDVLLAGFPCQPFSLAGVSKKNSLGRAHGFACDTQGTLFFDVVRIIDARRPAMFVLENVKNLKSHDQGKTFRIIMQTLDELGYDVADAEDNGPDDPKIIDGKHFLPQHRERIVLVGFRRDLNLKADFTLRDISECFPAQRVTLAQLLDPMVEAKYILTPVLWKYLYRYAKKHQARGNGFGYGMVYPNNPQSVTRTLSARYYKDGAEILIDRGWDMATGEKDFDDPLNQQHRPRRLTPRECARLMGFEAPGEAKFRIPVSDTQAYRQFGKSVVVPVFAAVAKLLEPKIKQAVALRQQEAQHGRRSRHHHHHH

Substance pUC19 plasmid DNA has an activity [1] greater than 70% and an activity [2] of 100%.

Substance lambda phage genomic DNA, unmethylated has an activity [3] of 50%.

“hemimethylated CpG fluorophore-labelled oligonucleotide” showed a binding signal [4] of 1.3 fold.

E. coli genomic DNA (dam-/dcm-) showed an activity [5] greater than 1.5%.

From patent publication US20230183793
